Data taken from patent US8008547B2, “Glyphosate-N-acetyltransferase (GAT) genes” (E.I. duPont de Nemours, priority 2000, dated 2011).
Residue numbers refer to the chain shown, from its start.

B1: SEQ ID NO: 293: GAT polypeptide (protein)
chain: MIEVKPINAEDTYEIRHRILRPNQPLEACKYETDLLGGTFHLGGYYRGKLVSIASFHQAEHPELEGQKQYQLRGMATLEGYREQKAGSTLIRHAEALLRKKGADLLWCNARTSASGYYKKLGFSEQGEVYDIPPTGPHILMYKKLT
modifications: 12_6H6
notes: GAT polypeptide
B2: SEQ ID NO: 294: GAT polypeptide (protein)
chain: B1 chain with V51I, A96E, E128G
modifications: 12_7D6
notes: GAT polypeptide
B3: SEQ ID NO: 295: GAT polypeptide (protein)
chain: B1 chain with V51I, P62S, A96E, I132T, T135V
modifications: 12_7G11
notes: GAT polypeptide
B4: SEQ ID NO: 296: GAT polypeptide (protein)
chain: B1 chain with K30M, R47Q, V51I, Q58K, P62S, A96E, A114V, E128G, V129I, T135I
modifications: 12F5
notes: GAT polypeptide
B5: SEQ ID NO: 297: GAT polypeptide (protein)
chain: B1 chain with R47Q, V51I, Q58K, P62S, A96E, A114V, T135I
modifications: 12G7
notes: GAT polypeptide
B6: SEQ ID NO: 298: GAT polypeptide (protein)
chain: B1 chain with K30M, T39A, V51I, P62S, A96E, E128G, T135I
modifications: 1_2H6
notes: GAT polypeptide
B7: SEQ ID NO: 299: GAT polypeptide (protein)
chain: B1 chain with K30M, V51I, H57N, G80E, A96E, T135V, Y142H
modifications: 13_12G12
notes: GAT polypeptide
B8: SEQ ID NO: 301: GAT polypeptide (protein)
chain: B1 chain with K30M, G37R, G38S, T39A, V51I, G80E, A96E, I132T, T135V
modifications: 13_7A7
notes: GAT polypeptide
B9: SEQ ID NO: 302: GAT polypeptide (protein)
chain: B1 chain with G38S, V51I, A96E
modifications: 13_7B12
notes: GAT polypeptide
B10: SEQ ID NO: 303: GAT polypeptide (protein)
chain: B1 chain with G37R, T39A, V51I, A96E, S115R
modifications: 13_7C1
notes: GAT polypeptide
B11: SEQ ID NO: 304: GAT polypeptide (protein)
chain: B1 chain with L35S, V51I, H57N, A96E, E128G, T135V
modifications: 13_8G6
notes: GAT polypeptide
B12: SEQ ID NO: 305: GAT polypeptide (protein)
chain: B1 chain with V51I, G80E, A96E, T135V
modifications: 13_9F6
notes: GAT polypeptide
B13: SEQ ID NO: 306: GAT polypeptide (protein)
chain: B1 chain with G37R, T39A, V51I, G80E, A96E, I132T, T135V
modifications: 14_10C9
notes: GAT polypeptide
B14: SEQ ID NO: 307: GAT polypeptide (protein)
chain: B1 chain with G37R, T39A, G80E, A96E, I132T, T135V
modifications: 14_10H3
notes: GAT polypeptide
B15: SEQ ID NO: 308: GAT polypeptide (protein)
chain: B1 chain with G37R, T39A, A96E, I132T, T135V
modifications: 14_10H9
notes: GAT polypeptide
B16: SEQ ID NO: 309: GAT polypeptide (protein)
chain: B1 chain with G38S, G80E, I132T
modifications: 14_11C2
notes: GAT polypeptide
B17: SEQ ID NO: 310: GAT polypeptide (protein)
chain: B1 chain with S124R, E128G, T135V
modifications: 14_12D8
notes: GAT polypeptide
B18: SEQ ID NO: 311: GAT polypeptide (protein)
chain: B1 chain with T39A, V51I, G80E, A96E
modifications: 14_12H6
notes: GAT polypeptide
B19: SEQ ID NO: 312: GAT polypeptide (protein)
chain: B1 chain with V51I, H57N, A96E, E128G, T135V
modifications: 14_2B6
notes: GAT polypeptide
B20: SEQ ID NO: 313: GAT polypeptide (protein)
chain: B1 chain with G37R, T39A, A96E
modifications: 14_2G11
notes: GAT polypeptide
B21: SEQ ID NO: 314: GAT polypeptide (protein)
chain: B1 chain with G37R, T39A, E128G, T135A
modifications: 14_3B2
notes: GAT polypeptide
B22: SEQ ID NO: 315: GAT polypeptide (protein)
chain: B1 chain with G38S, V51I, A96E, I132T, T135V
modifications: 14_4H8
notes: GAT polypeptide
B23: SEQ ID NO: 316: GAT polypeptide (protein)
chain: B1 chain with K30M, H57N, A96E, I132T, T135V, I139V
modifications: 14_6A8
notes: GAT polypeptide
B24: SEQ ID NO: 317: GAT polypeptide (protein)
chain: B1 chain with V51I, A96E, E128G, I132M, T135V
modifications: 14_6B10
notes: GAT polypeptide
B25: SEQ ID NO: 318: GAT polypeptide (protein)
chain: B1 chain with V51I, H57N, I132T, T135V
modifications: 14_6D4
notes: GAT polypeptide
B26: SEQ ID NO: 319: GAT polypeptide (protein)
chain: B1 chain with G37R, T39A, Q67L, A96E, I132T
modifications: 14_7A11
notes: GAT polypeptide
B27: SEQ ID NO: 320: GAT polypeptide (protein)
chain: B1 chain with K30M, G37R, G80E, A96E, I132T, T135A
modifications: 14_7A1
notes: GAT polypeptide
B28: SEQ ID NO: 321: GAT polypeptide (protein)
chain: B1 chain with E60K, A96E, I132T, T135V
modifications: 14_7A9
notes: GAT polypeptide
B29: SEQ ID NO: 322: GAT polypeptide (protein)
chain: B1 chain with G37R, T39A, V51I, H57N, G80E, I132T, T135V
modifications: 14_7G1
notes: GAT polypeptide
B30: SEQ ID NO: 323: GAT polypeptide (protein)
chain: B1 chain with A96E, T135V
modifications: 14_7H9
notes: GAT polypeptide
B31: SEQ ID NO: 324: GAT polypeptide (protein)
chain: B1 chain with G80E
modifications: 14_8F7
notes: GAT polypeptide
B32: SEQ ID NO: 325: GAT polypeptide (protein)
chain: B1 chain with G37R, T39A, A96E, S113T, Y130F
modifications: 15_10C2
notes: GAT polypeptide
B33: SEQ ID NO: 326: GAT polypeptide (protein)
chain: B1 chain with K30M, G80E, A96E, T135V
modifications: 15_10D6
notes: GAT polypeptide
B34: SEQ ID NO: 263: GAT polypeptide (protein)
chain: B1 chain with G37R, V51I, A96E, T135V
modifications: 13_10F6
notes: GAT polypeptide
B35: SEQ ID NO: 327: GAT polypeptide (protein)
chain: B1 chain with G37R, T39A, H57N, A96E, K100R
modifications: 15_11F9
notes: GAT polypeptide
B36: SEQ ID NO: 328: GAT polypeptide (protein)
chain: B1 chain with G37R, T39A, V51I
modifications: 15_11H3
notes: GAT polypeptide
B37: SEQ ID NO: 329: GAT polypeptide (protein)
chain: B1 chain with V51I
modifications: 15_12A8
notes: GAT polypeptide
B38: SEQ ID NO: 330: GAT polypeptide (protein)
chain: B1 chain with K30M, G37R, T39A, A96E, I132T, T135V
modifications: 15_12D6
notes: GAT polypeptide
B39: SEQ ID NO: 331: GAT polypeptide (protein)
chain: B1 chain with A96E, E128K, T135V
modifications: 15_12D8
notes: GAT polypeptide

Assay: Standard protocol for determination of kcat and KM (continuous spectrophotometric assay, Acetyl CoA hydrolysis at 235 nm)
Format: biochemical
Conditions: purified protein; about 23° C.; 20 mM HEPES pH 6.8, 10% ethylene glycol, 0.2 mM acetyl CoA
Procedure, shortened: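 KM from initial rates over 0.125–10 mM glyphosate, fitted by Lineweaver-Burke transformation of Michaelis-Menten; kcat/KM computed as kcat divided by KM. Continuous spectrophotometric read of acetyl-CoA hydrolysis at 235 nm.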

Question: For B1, which Kcat is on record?
Answer: 1.51 s⁻¹

Question: With B2 as the molecule, how does the Kcat read?
Answer: 0.898 s⁻¹

Question: For B3, which Kcat is on record?
Answer: 3.908 s⁻¹

Question: For B4, which Kcat is on record?
Answer: 0.0517 s⁻¹

Question: For B5, which Kcat is on record?
Answer: 0.0383 s⁻¹

Question: Which Kcat does the source give for B6 here?
Answer: 0.155 s⁻¹

Question: With B7 as the molecule, how does the Kcat read?
Answer: 0.602 s⁻¹

Question: Which Kcat does the source give for B8 here?
Answer: 1.95 s⁻¹

Question: With B9 as the molecule, how does the Kcat read?
Answer: 1.15 s⁻¹

Question: For B10, which Kcat is on record?
Answer: 0.802 s⁻¹

Question: For B11, which Kcat is on record?
Answer: 0.562 s⁻¹

Question: With B12 as the molecule, how does the Kcat read?
Answer: 0.983 s⁻¹

Question: For B13, which Kcat is on record?
Answer: 2.12 s⁻¹

Question: With B14 as the molecule, how does the Kcat read?
Answer: 1.753 s⁻¹

Question: For B15, which Kcat is on record?
Answer: 2.12 s⁻¹

Question: With B16 as the molecule, how does the Kcat read?
Answer: 1.812 s⁻¹

Question: With B17 as the molecule, how does the Kcat read?
Answer: 1.04 s⁻¹

Question: With B18 as the molecule, how does the Kcat read?
Answer: 1.52 s⁻¹

Question: For B19, which Kcat is on record?
Answer: 0.57 s⁻¹

Question: With B20 as the molecule, how does the Kcat read?
Answer: 1.16 s⁻¹

Question: With B21 as the molecule, how does the Kcat read?
Answer: 1.14 s⁻¹

Question: For B22, which Kcat is on record?
Answer: 3.313 s⁻¹

Question: Which Kcat does the source give for B23 here?
Answer: 0.728 s⁻¹

Question: For B24, which Kcat is on record?
Answer: 2.245 s⁻¹

Question: Which Kcat does the source give for B25 here?
Answer: 4.27 s⁻¹

Question: Which Kcat does the source give for B26 here?
Answer: 3.287 s⁻¹

Question: With B27 as the molecule, how does the Kcat read?
Answer: 2.597 s⁻¹

Question: With B28 as the molecule, how does the Kcat read?
Answer: 4.098 s⁻¹

Question: Which Kcat does the source give for B29 here?
Answer: 2.278 s⁻¹

Question: For B30, which Kcat is on record?
Answer: 1.07 s⁻¹

Question: For B31, which Kcat is on record?
Answer: 1.51 s⁻¹

Question: Which Kcat does the source give for B32 here?
Answer: 1.16 s⁻¹

Question: With B33 as the molecule, how does the Kcat read?
Answer: 1.12 s⁻¹

Question: With B34 as the molecule, how does the Kcat read?
Answer: 0.81 s⁻¹

Question: With B35 as the molecule, how does the Kcat read?
Answer: 1.27 s⁻¹

Question: With B36 as the molecule, how does the Kcat read?
Answer: 1.03 s⁻¹

Question: For B37, which Kcat is on record?
Answer: 1.28 s⁻¹

Question: Which Kcat does the source give for B38 here?
Answer: 2.477 s⁻¹

Question: For B39, which Kcat is on record?
Answer: 0.995 s⁻¹

Same assay, conditions: purified protein; about 23° C.; pH 6.8; 0.2 mM acetyl CoA; glyphosate 0.125 to 10 mM

Question: For B1, which Km is on record?
Answer: 1600 µM

Question: For B2, which Km is on record?
Answer: 1400 µM

Question: For B3, which Km is on record?
Answer: 2000 µM

Question: Which Km does the source give for B4 here?
Answer: 1800 µM

Question: With B5 as the molecule, how does the Km read?
Answer: 3700 µM

Question: For B6, which Km is on record?
Answer: 900 µM

Question: For B7, which Km is on record?
Answer: 690 µM

Question: With B8 as the molecule, how does the Km read?
Answer: 500 µM

Question: For B9, which Km is on record?
Answer: 1700 µM

Question: Which Km does the source give for B10 here?
Answer: 1500 µM

Question: Which Km does the source give for B11 here?
Answer: 610 µM

Question: With B12 as the molecule, how does the Km read?
Answer: 1300 µM

Question: For B13, which Km is on record?
Answer: 900 µM

Question: Which Km does the source give for B14 here?
Answer: 600 µM

Question: Which Km does the source give for B15 here?
Answer: 1100 µM

Question: For B16, which Km is on record?
Answer: 1000 µM

Question: With B17 as the molecule, how does the Km read?
Answer: 1000 µM

Question: For B18, which Km is on record?
Answer: 900 µM

Question: With B19 as the molecule, how does the Km read?
Answer: 630 µM

Question: Which Km does the source give for B20 here?
Answer: 1400 µM

Question: With B21 as the molecule, how does the Km read?
Answer: 850 µM

Question: With B22 as the molecule, how does the Km read?
Answer: 2000 µM

Question: For B23, which Km is on record?
Answer: 780 µM

Question: Which Km does the source give for B24 here?
Answer: 1400 µM

Question: With B25 as the molecule, how does the Km read?
Answer: 1000 µM

Question: With B26 as the molecule, how does the Km read?
Answer: 3700 µM

Question: For B27, which Km is on record?
Answer: 1600 µM

Question: With B28 as the molecule, how does the Km read?
Answer: 3200 µM

Question: Which Km does the source give for B29 here?
Answer: 660 µM

Question: With B30 as the molecule, how does the Km read?
Answer: 1300 µM

Question: With B31 as the molecule, how does the Km read?
Answer: 1800 µM

Question: Which Km does the source give for B32 here?
Answer: 800 µM

Question: With B33 as the molecule, how does the Km read?
Answer: 1000 µM

Question: With B34 as the molecule, how does the Km read?
Answer: 1300 µM

Question: Which Km does the source give for B35 here?
Answer: 1000 µM

Question: With B36 as the molecule, how does the Km read?
Answer: 1000 µM

Question: For B37, which Km is on record?
Answer: 1600 µM

Question: With B38 as the molecule, how does the Km read?
Answer: 740 µM

Question: For B39, which Km is on record?
Answer: 1300 µM
